Assay results taken from PMC9418005 (Nature Microbiology, 2022).

Target: original 2019-nCoV RBD protein (SARS-CoV-2, UniProt P0DTC2)
Experiment: Luminex bead-based competitive binding assay
Conditions: both partners purified

B1: P2G3 LS human IgG1 monoclonal antibody (antibody, V domains shown)
VH: EVQLVESGGGLVQPGRSLRLSCAASGFRFDDYALHWVRQAPEKGLEWVSGISWNSNNIGYAESVKGRFTISRDTAKKSLYLQMNDLRAEDTALYYCVKDRHYDSSGYFVNGFDIWGQGTLVTVSA
VL: DIQLTQSPSFLSASVGDRVTVTCRASQGISSYVAWYQQKAGKAPTLLIYTASTLQSGVPSRFSGSGSGTEFTLTISSLQPEDFATYYCQQLHSYPVTFGQGTRLDIE
binding result: binds

B2: P5C3 LS monoclonal antibody (antibody, V domains shown)
VH: QMQLVQSGPEVKKPGTSVKVSCKASGFTFTSSAVQWVRQARGQRLEWIGWIVVGSGNTDYAQQFQERVTITRDMSTSTAYMELSSLGSEDTAVYYCAAPNCSGGSCYDGFDLWGQGTMVTVSS
VL: EIVLTQSPGTLSLSPGERATLSCRGSQSVRSSYLGWYQQKPGQAPRLLIYGASSRATGIPDRFSGSGSGTDFTLTISRLEPEDFAVYYCQQYGSSPWTFGQGTKVEIK
binding result: binds
